Experimental data reported in publication doi:10.1101/2022.11.15.516577.
Read-outs that look alike come from different tables or passages of the source.

Legend:
Test in all cases: single-molecule TIRF colocalisation with deconvolution of colocalisation times
[1] = biological target: N-terminally SNAP-tagged human β2AR carrying the vasopressin V2 receptor C-tail (SNAP-β2V2)
[2] = biological target: N-terminally SNAP-tagged human β2AR carrying the vasopressin V2 receptor C-tail (SNAP-β2V2); remark: listed apart in the source
[3] = biological target: N-terminally SNAP-tagged human β2AR carrying the vasopressin V2 receptor C-tail (SNAP-β2V2); remark: listed apart in the source

average interaction time [1]: 1 s
average interaction time [2]: 1 s
average interaction time [3]: 1 s
Substance: C-terminally Halo-tagged bovine β-arrestin 2 (βArr2-Halo) (from UniProt P32120-2 1-409) (natural protein)
